Laboratory results from publication PMC4003281.

Molecular target: DegP^S210A/R207P (Escherichia coli) (UniProt P0C0V0)
Assay: fluorescence polarisation

^flC18–58, fluorescent peptide derived from residues 18–58 of lysozyme
Kd: 1.7 µM
